This is an account of results in patent US20060127409A1 (published 2006).

The target of experiment [1] is T1, HLA-A0201 molecule on T2 cells (TAP-, HLA-A0201+) (human).
T1 construct: Empty, thermolabile HLA-A0201 on TAP-deficient T2 cells, stabilised by added peptide; surface level read with mAb BB7.2; also called HLA-A2.1; HLA-A2
In words: T2 binding and stabilization assay, flow cytometry with BB7.2. How it is done: (§1) T2 cells (TAP-, HLA-A0201⁺) were incubated overnight at 37° C. at a concentration of 1×10⁶ cells/ml in FCS-free RPMI medium supplemented with 5 μg/ml human β₂m (Sigma, St Louis, Mo.) in the absence (negative control) or presence of either a positive reference tyrosinase peptide or test peptides at various final concentrations (50, 10, 1, and 0.1 micrograms (μg)/ml). Following a 4-hour incubation with 5 μg/ml brefeldin A (Sigma), T2 cells were labeled for 30 minutes at 4° C. with a saturating concentration of anti-HLA-A2.1 (BB7.2) mAb, then washed twice. Cells were then incubated for 30 minutes, 4° C. with a saturating concentration of FITC-conjugated goat IgG F(ab′)2 anti-mouse Ig (Caltag, San Francisco, Calif.), washed twice, fixed in PBS/1% paraformaldehyde and analyzed using a FACS Calibur® cytofluorometer (Becton Dickinson, Immunocytometry Systems, San Jose, Calif.)
(§2) The mean intensity of fluorescence (MIF) observed for each peptide concentration (after dividing by the MIF in the absence of peptide) was used as an indication of peptide binding and expressed as a “fluorescence index.” Stabilization assays were performed similarly. Following initial evaluation of peptide binding at time 0, cells were washed in RPMI complete medium to remove free peptides and incubated in the continuous presence of 0.5 μg/ml brefeldin-A for 2, 4, 6 or 8 hours.

In experiment [2] the target is T1, HLA-A0201 molecule on T2 cells (TAP-, …). Briefly: refers to the T2 assay. Here is the method: as §1, §2

B1: b2a2 A3 (analogue) (peptide)
peptide: YLINKEEAL
notes: Synthetic analogue of b2a2A; also called YLINKEEAL
In the case of B1, the binding result in experiment [1] is listed as “binds”.

Consider YLINKEEAV (Synthetic analogue of b2a2A) [b2a2 A4 (analogue)], for which the binding result in experiment [1] is “binds”.

B2: b2a2 A5 (analogue) (peptide)
peptide: YLINKVEAL
notes: Synthetic analogue of b2a2A; also called YLINKVEAL
With B2, the binding result in experiment [1] is on record as “binds”. In the case of SSKALQRPV (Synthetic 9-mer) [CMLA2 native (p210-b3a2)], the binding result in experiment [2] was “binds”.

Take KALQRPVAS [p210Cn native (p210-b3a2)]: in experiment [1], the binding result was “binds”.
